# Source: patent US20140274782A1 (Stanford University, published 2014)
# T1: CUTC-cutC copper transporter homolog (E. coli) (CUTC) (human, UniProt Q9NTM9 1-273)
# T1 sequence (looked up): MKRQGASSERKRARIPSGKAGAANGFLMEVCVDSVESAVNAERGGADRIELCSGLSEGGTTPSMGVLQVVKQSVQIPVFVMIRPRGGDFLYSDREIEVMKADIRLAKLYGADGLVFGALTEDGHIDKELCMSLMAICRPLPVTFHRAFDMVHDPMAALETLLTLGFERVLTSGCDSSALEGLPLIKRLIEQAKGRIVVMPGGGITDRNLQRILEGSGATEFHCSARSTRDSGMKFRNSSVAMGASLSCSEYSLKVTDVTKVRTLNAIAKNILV
# T2: RASSF4-Ras association (RaIGDS/AF-6) domain family 4 (RASSF4) (human, UniProt Q9H2L5 1-321, limits assumed)
# T2 sequence (looked up): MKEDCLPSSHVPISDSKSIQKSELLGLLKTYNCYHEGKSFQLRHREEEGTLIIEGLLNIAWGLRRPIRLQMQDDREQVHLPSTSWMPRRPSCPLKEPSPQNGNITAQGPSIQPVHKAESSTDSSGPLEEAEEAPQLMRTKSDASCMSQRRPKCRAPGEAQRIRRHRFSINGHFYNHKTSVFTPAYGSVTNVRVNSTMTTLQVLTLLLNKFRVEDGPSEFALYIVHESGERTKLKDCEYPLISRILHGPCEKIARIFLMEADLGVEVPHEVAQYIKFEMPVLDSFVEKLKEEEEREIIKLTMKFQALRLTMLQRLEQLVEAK
# T3: BHMT-betaine-homocysteine methyltransferase (BHMT) (human, UniProt Q93088 1-406)
# T3 sequence (looked up): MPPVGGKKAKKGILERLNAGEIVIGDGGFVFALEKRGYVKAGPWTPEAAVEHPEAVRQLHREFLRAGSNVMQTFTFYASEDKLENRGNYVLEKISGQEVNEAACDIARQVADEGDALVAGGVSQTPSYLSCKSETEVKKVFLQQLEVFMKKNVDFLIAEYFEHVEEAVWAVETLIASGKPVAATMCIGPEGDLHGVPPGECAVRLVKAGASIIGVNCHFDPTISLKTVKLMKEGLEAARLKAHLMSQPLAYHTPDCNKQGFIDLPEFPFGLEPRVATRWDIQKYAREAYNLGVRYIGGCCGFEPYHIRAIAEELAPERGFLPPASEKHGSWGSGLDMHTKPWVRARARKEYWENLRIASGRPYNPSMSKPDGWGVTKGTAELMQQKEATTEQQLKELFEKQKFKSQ
# T4: MOBKL3-Mps one binder kinase activator-like 3 (human, UniProt Q9Y3A3 1-225, limits assumed)
# T4 sequence (looked up): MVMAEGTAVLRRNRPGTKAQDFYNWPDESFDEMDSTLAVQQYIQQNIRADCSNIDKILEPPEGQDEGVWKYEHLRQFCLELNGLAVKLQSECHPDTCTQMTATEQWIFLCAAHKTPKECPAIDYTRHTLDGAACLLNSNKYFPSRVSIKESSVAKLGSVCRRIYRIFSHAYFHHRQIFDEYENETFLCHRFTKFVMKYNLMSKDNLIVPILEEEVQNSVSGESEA
# T5: CCL24-C-C motif chemokine 24 (human, UniProt O00175 27-119, limits assumed)
# T5 sequence (looked up): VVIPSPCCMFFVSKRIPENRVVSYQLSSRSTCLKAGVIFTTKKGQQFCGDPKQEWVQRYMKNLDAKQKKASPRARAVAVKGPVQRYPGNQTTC
# T6: GFOD1-Glucose-fructose oxidoreductase domain-containing protein 1 (human, UniProt Q9NXC2 22-390, limits assumed)
# T6 sequence (looked up): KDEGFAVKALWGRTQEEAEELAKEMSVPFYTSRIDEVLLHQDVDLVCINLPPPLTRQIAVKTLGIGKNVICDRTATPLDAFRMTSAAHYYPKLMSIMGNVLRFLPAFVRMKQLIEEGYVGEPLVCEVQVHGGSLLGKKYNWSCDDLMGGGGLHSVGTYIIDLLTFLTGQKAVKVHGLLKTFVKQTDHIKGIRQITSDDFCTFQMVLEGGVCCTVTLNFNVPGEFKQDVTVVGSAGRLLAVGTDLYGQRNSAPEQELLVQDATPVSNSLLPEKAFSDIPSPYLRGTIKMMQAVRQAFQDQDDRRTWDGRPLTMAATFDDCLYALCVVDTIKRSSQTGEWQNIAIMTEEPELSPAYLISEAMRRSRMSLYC
# T7: LTC4S-Leukotriene C4 synthase (human, UniProt Q16873 1-150)
# T7 sequence (looked up): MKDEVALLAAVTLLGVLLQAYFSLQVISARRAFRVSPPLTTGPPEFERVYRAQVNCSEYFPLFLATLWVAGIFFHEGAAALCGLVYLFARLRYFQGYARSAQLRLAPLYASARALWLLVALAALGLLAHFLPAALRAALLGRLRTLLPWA
# Tests used:
# Experiment in all cases: ProtoArray, GST-treated control array;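 also: human protein microarray (about 9500 recombinant proteins) incubated overnight with GST alone plus SAM cofactor as the negative control for G9a SET domain methylation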
# [1] = target: T1, CUTC-cutC copper transporter homolog …
# [2] = target: DGKA-diacylglycerol kinase, alpha 80 kDa (DGKA) (human, UniProt P23743 1-735)
# [3] = target: T2, RASSF4-Ras association (RaIGDS/AF-6) …
# SCGB2A2-Mammaglobin-A = SCGB2A2-Mammaglobin-A (human, UniProt Q13296 19-93, limits assumed)
# [4] = target: T3, BHMT-betaine-homocysteine …
# [5] = target: PSMA8-proteasome (prosome, macropain) subunit, alpha type, 8 (PSMA8) (human, UniProt Q8TAA3 1-256, limits assumed)
# [6] = target: T4, MOBKL3-Mps one binder kinase …
# [7] = target: T5, CCL24-C-C motif chemokine 24
# [8] = target: T6, GFOD1-Glucose-fructose oxidoreductase …
# [9] = target: T7, LTC4S-Leukotriene C4 synthase
# [10] = target: SAR1B-SAR1 gene homolog B (S. cerevisiae) (SAR1B), transcript variant 2 (human, UniProt Q9Y6B6 1-198)
# [11] = target: FTL-ferritin, light polypeptide (FTL) (human, UniProt P02792 1-175)
# [12] = target: HPCAL4-hippocalcin like 4 (HPCAL4) (human, UniProt Q9UM19 1-191)
# [13] = target: FTH1-ferritin, heavy polypeptide 1 (FTH1) (human, UniProt P02794 1-183)
# Sequence of FTH1-ferritin, heavy polypeptide 1 (FTH1) (P02794 whole entry): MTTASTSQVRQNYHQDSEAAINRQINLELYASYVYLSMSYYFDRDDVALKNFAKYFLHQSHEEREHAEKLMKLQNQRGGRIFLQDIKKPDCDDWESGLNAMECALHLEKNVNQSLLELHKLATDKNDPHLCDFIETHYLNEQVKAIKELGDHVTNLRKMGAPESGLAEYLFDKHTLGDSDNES
# Sequence of PSMA8-proteasome (prosome, macropain) subunit, alpha type, 8 (PSMA8) (Q8TAA3 whole entry): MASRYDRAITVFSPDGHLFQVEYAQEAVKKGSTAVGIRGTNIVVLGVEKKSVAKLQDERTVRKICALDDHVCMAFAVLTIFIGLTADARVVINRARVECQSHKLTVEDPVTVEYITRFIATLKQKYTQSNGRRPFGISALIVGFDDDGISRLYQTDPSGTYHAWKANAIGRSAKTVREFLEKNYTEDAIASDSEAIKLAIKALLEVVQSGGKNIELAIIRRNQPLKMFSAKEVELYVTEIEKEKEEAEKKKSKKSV
# Sequence of HPCAL4-hippocalcin like 4 (HPCAL4) (Q9UM19 whole entry): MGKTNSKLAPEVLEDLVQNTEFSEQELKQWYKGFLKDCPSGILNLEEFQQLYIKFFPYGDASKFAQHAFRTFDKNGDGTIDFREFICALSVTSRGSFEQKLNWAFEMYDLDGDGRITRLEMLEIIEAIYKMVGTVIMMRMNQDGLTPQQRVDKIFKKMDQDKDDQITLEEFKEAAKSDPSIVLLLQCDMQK
# Sequence of SCGB2A2-Mammaglobin-A (Q13296 19-93 limits assumed): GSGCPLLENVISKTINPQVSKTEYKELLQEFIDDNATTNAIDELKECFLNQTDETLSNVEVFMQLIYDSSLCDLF
# Sequence of DGKA-diacylglycerol kinase, alpha 80 kDa (DGKA) (P23743 whole entry): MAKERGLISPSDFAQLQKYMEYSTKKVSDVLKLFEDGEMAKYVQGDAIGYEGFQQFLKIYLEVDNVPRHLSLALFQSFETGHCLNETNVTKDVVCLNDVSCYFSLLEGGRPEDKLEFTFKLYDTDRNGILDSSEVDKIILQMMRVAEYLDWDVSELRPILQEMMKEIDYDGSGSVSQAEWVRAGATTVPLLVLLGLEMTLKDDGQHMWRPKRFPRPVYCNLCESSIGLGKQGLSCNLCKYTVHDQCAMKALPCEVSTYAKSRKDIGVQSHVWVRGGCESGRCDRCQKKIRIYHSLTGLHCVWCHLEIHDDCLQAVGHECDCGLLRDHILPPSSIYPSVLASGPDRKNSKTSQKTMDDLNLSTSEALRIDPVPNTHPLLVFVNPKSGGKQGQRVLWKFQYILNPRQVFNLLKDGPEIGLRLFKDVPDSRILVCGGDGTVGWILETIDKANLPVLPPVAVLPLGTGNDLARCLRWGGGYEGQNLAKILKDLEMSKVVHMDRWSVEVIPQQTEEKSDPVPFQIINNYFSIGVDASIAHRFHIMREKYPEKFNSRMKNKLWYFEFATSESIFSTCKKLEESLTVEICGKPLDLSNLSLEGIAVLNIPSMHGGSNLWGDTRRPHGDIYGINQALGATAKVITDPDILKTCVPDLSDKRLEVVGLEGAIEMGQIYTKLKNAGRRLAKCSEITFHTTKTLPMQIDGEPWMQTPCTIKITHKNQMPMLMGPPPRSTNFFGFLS
# Sequence of SAR1B-SAR1 gene homolog B (S. cerevisiae) (SAR1B), transcript variant 2 (Q9Y6B6 whole entry, change not shown): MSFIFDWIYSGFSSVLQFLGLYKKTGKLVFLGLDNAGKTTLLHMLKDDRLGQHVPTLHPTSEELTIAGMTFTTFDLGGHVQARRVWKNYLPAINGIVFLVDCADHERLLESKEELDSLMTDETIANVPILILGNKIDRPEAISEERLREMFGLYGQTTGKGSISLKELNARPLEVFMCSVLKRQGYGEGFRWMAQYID
# Sequence of FTL-ferritin, light polypeptide (FTL) (P02792 whole entry): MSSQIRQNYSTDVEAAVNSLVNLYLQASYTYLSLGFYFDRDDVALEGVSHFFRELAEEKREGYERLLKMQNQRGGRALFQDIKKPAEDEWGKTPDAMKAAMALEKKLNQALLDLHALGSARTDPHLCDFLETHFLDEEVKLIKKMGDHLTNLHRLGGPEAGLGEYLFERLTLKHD
binder,measurement,setting,value
"3× Flag-3×MBT (designed binder, also called Flag-tagged 3×MBT; 3xFlag-3xMBT; not shown: made by PreScission cleavage of GST-3× Flag-3×MBT) EEWSSSQPATGEKKECWSWESYLEEQKAITAPVSLFQDSQAVTHNKNGFKLGMKLEGIDPQHPSMYFILTVAEVCGYRLRLHFDGYSECHDFWVNANSPDIHPAGWFEKTGHKLQPPKGYKEEEFSWSQYLRSTRAQAAPKHLFVSQSHSPPPLGFQVGMKLEAVDRMNPSLVCVASVTDVVDSRFLVHFDNWDDTYDYWCDPSSPYIHPVGWCQKQGKPLTPPQDYPDPDNFCWEKYLEETGASAVPTWAFKVRPPHSFLVNMKLEAVDRRNPALIRVASVEDVEDHRIKIHFDGWSHGYDFWIDADHPDIHPAGWCSKTGHPLQPPLGPREPSSASPGG",GST Average SNR,[1],0.667
same,GST Average SNR,[2],1.23
same,GST Average SNR,[3],1.16
same,GST Average SNR,SCGB2A2-Mammaglobin-A,0.983
same,GST Average SNR,[4],1.44
same,GST Average SNR,[5],-0.846
same,GST Average SNR,[6],-0.451
same,GST Average SNR,[7],0.109
same,GST Average SNR,[8],0.413
same,GST Average SNR,[9],1.21
same,GST Average SNR,[10],0.558
same,GST Average SNR,[11],0.717
same,GST Average SNR,[12],-0.871
same,GST Average SNR,[13],-0.802
